B1: V(D)J recombination-activating protein 2, residues 415 to 491; numbered along this chain, P55895 (parent)
chain: YWITCCPTCDVDINTWVPFYSTELNKPAMIYCSHGDGHWVHAQCMDLAERTLIHLSAGSNKYYCNEHVEIARALHTP

Variants of: B1
Assay: abundance fitness (aPCA) (normalised: wild type 0, dead -1); higher = more abundant; growth selection in yeast, the domain comes from the species named
Settings: Homo sapiens

Abundance fitness: each site, then its substitutions
C64: K -0.842 | V -0.557 | E -1.05 | A -1.01 | R -0.945 | G -0.935 | S -0.803 | P -0.822 | W -0.901 | H -0.962 | F -0.851 | T -1.05 | Y -0.712 | Q -0.768 | M -1.06 | L -1.07
E69: Q 0.147 | C -0.355 | Y -0.328 | R 0.035 | W 0.071 | D 0.052 | P 0.358 | A -0.092 | K -0.183 | S 0.075 | M 0.18 | V -0.14 | T 0.007 | G 0
I70: S -0.145 | F -0.002 | Y 0.064 | M 0.02 | H -0.205 | K -0.139 | G -0.045 | D 0.112 | N -0.169 | R 0.015 | C 0.176 | P -0.216 | L 0.03 | Q -0.036 | E -0.093
Y63: V -0.051 | G -0.377 | K -0.005 | H -0.012 | R -0.049 | E -0.068 | A -0.048 | F -0.002 | W 0.115 | S -0.18 | M -0.171 | C 0.188 | D -0.207 | I 0.036
E66: R -0.127 | A -0.025 | G 0.006 | N -0.381 | L 0.01 | C 0.023 | W -0.192 | K -0.099 | H -0.22 | I -0.17 | F -0.193 | M 0.048 | P -0.231 | V -0.105 | S -0.039 | T -0.063 | Q -0.057
H67: D -0.424 | L -0.741 | G -0.116 | C -0.031 | I -0.874 | R -0.253 | K -0.388 | P -0.369 | S -0.196 | T -0.22 | V -0.387 | F -0.485 | M -0.579 | N -0.32 | W -0.484 | Q -0.348
N65: R 0.079 | A 0.001 | I 0.185 | F -0.172 | W 0.036 | Y -0.318 | V 0.008 | G 0.012 | T -0.005 | K -0.047 | E 0.058 | L 0.008 | M -0.12 | S 0.079 | H 0.003 | Q -0.181 | P 0.016 | C -0.138
A71: I -0.008 | L 0.027 | E 0.085 | M -0.12 | C -0.033 | N -0.121 | K -0.225 | H -0.179 | Q 0.044 | D -0.038 | P -0.03 | R 0.026 | G -0.051
Y62: M -0.206 | V -0.342 | P -0.67 | C -0.442 | R -0.561 | T -0.152 | I -0.281 | W 0.067 | K -0.6 | F -0.003 | A -0.328 | D -0.558 | H -0.377 | Q -0.312 | N -0.469 | L -0.304 | G -0.495
K61: T -0.045 | G 0.06 | C -0.098 | A 0.017 | L 0.158 | Q 0.097 | W -0.159 | S -0.116 | N -0.115 | E -0.002 | V 0.069 | R -0.287
N60: W -0.207
V68: R -0.163 | A -0.173 | Q -0.495 | I -0.318 | C -0.019 | G 0 | Y -0.335 | L -0.08 | N -0.219 | M -0.087 | W -0.076 | K -0.115 | P -0.125 | E -0.439

Reference: the Human Domainome abundance scans (Beltran et al. 2025)
